Results: US20220195067A1 (LAMKAP BIO BETA, published 2022)
Residue numbers refer to the chain shown, from its start.

T1: recombinant human CEACAM5 Extra Cellular Domain (ECD) soluble protein (human, UniProt P06731 35-685, biotinylated in the competition ELISA of Example 4)
T1 construct: extracellular domain; also called rec. hCEACAM5; recombinant soluble human CEACAM5; not shown: C-terminal Avitag and hexa-histidine tag, or a human Fc or a mouse Fc region; which construct stood in each assay is not
T1 sequence (looked up): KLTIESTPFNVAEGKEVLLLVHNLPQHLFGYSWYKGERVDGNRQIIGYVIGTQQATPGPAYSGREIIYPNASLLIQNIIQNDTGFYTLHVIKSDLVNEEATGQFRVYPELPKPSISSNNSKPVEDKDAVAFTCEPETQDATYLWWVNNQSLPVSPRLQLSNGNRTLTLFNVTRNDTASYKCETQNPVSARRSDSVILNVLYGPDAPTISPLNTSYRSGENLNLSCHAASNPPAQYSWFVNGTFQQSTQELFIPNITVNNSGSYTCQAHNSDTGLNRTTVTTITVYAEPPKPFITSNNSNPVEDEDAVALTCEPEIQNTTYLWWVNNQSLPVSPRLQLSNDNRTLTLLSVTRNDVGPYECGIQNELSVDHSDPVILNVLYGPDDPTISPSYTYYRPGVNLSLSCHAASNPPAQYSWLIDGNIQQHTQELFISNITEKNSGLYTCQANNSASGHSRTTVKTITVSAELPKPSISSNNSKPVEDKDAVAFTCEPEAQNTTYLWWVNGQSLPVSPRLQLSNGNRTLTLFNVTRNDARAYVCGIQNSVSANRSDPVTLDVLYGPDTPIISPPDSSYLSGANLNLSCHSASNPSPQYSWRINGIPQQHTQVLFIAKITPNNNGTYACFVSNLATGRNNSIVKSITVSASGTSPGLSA

T2: his-tagged recombinant huCEACAM3 (R&D Systems, #9868-CM) (human, UniProt P40198 35-155)
T2 construct: Bought reagent; also called rec. hCEACAM3; recombinant soluble human CEACAM3; not shown: His tag
T2 sequence (looked up): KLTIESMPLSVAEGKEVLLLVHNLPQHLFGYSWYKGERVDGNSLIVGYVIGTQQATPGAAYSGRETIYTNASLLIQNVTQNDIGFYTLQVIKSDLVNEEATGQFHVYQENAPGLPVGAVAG

T3: human CEACAM5 on CEACAM5-expressing cancer cell lines (human, UniProt P06731 35-685)
T3 construct: whole, on cells; also called CEACAM5 on SK-CO-1, MKN-45, HPAF-II, SNU-C1, Ls174T, LoVo cells
T3 sequence (looked up): T1 sequence (looked up)

B1: K2AC84 (bispecific antibody, human IgG1, kappa, lambda)
heavy: not shown
light 1: QSVLTQPPSVSAAPGQKVTISCSGSSSNIGIGLVSWYQQLPGTAPKLLIYNVNTRPSGIPDRFSGSKSGTSATLGITGLQTGDEADYYCGTWDFSYRVDFGGGTKLTVLGQPKAAPSVTLFPPSSEELQANKATLVCLISDFYPGAVTVAWKADSSPVKAGVETTTPSKQSNNKYAASSYLSLTPEQWKSHRSYSCQVTHEGSTVEKTVAPTECS
light 2: not shown
notes: Kappa-lambda body; also called CD47xCEACAM5 bispecific antibody K2AC84; AC84 (CEACAM5 arm)
B2: K2AC100 (bispecific antibody, human IgG1, kappa, lambda)
heavy: not shown
light 1: B1 light 1 with I31Y, V52G, T54I
light 2: not shown
notes: Kappa-lambda body; also called CD47xCEACAM5 bispecific antibody K2AC100; AC100 (CEACAM5 arm)
B3: K2AC22 (bispecific antibody, human IgG1, kappa, lambda)
heavy: not shown
light 1: B1 light 1 with G30A, I31N, L33I, N51F, V52D, T54L, R97G, V98I, D99V
light 2: not shown
notes: Kappa-lambda body, human IgG1, one arm for CEACAM5 and one for CD47; comparison antibody from WO2019234576; also called state of the art bispecific CEAxCD47 antibody K2AC22; CD47xCEACAM5 bispecific antibody K2AC22

Key:
[1] = target: T1, recombinant human CEACAM5 Extra …; assay: BLI (Octet), from Table 2
Procedure: (§1) The affinity of the anti-human CEACAM5 arm of the CD47×CEACAM5 bispecific antibodies of the invention for recombinant soluble human CEACAM5 was determined using the Bio-Layer Interferometry (BLI) technology. An OctetRED96 instrument and Protein A biosensors were used (Sartorius). The measurement was performed at 30° C. After hydration, pre-conditioning and a baseline step in Kinetic buffer (PBS, 0.002% Tween 20, 0.01% BSA, Kathon; Sartorius), biosensors were loaded for 5 min with the κλ body at 0.5 μg/mL in Kinetic buffer. Then, biosensors were dipped into a serial dilution of recombinant human CEACAM5 Extra Cellular Domain (ECD) soluble protein (produced in house), starting at 50 nM with a 2× dilution factor. The association and dissociation phases were monitored for 600 seconds each. Biosensors were regenerated using 10 mM glycine pH 1.7. A standard acquisition rate was applied (5.0 Hz, averaging by 20). Curves were processed with a reference well subtraction, a Y alignment on the baseline, without interstep correction. The affinity was measured applying a 1:1 global fitting model on the full association and dissociation steps. The binding affinity (KD) of the bispecific antibodies of the invention to recombinant human CD47 was determined by the same experimental procedure.
(§2) The affinity of the anti-human CEACAM5 arms of the CD47×CEACAM5 bispecific antibodies of the invention for recombinant soluble human CEACAM3 was determined using the Bio-Layer Interferometry (BLI) technology and an OctetRED96 instrument. HIS1K biosensors (Sartorius), loaded with an anti-His tag antibody, were used to capture his-tagged recombinant huCEACAM3 (R&D Systems, #9868-CM). The measurement was performed at 30° C. After hydration, pre-conditioning and a baseline step in Kinetic buffer (PBS, 0.002% Tween 20, 0.01% BSA, Kathon; Sartorius), biosensors were loaded for 5 min with the recombinant huCEACAM3 at 5 μg/mL in Kinetic buffer. Then, biosensors were dipped into a serial dilution of k bodies, starting at 667 nM with a 2× dilution factor. The association and dissociation phases were monitored for 60 seconds and 120 seconds respectively. Biosensors were regenerated using 10 mM glycine pH 1.7.

[2] = target: T2, his-tagged recombinant huCEACAM3 (R&D …); assay: BLI (Octet), from Table 2
Procedure: as §1, §2

[3] = target: T3, human CEACAM5 on CEACAM5-expressing …; assay: flow cytometry on LoVo cells (carry CEACAM5 and CD47), PE anti-human IgG Fc
Procedure: The binding of CD47×CEACAM5 bispecific antibodies was tested on CEACAM5-expressing human gastric adenocarcinoma cells (e.g. MKN-45), on CEACAM5-expressing human colorectal cancer cells (SK-CO-1, SNU-C1, Ls174T, and LoVo), and on CEACAM5-expressing pancreatic adenocarcinoma cells (HPAF-II).
Cells were harvested, counted, checked for viability and resuspended at 3×10⁶ cells/ml in FACS buffer (PBS 2% BSA, 0.1% NaN3). 100 μl of the cell suspension was distributed in V-bottom 96-well plates (3×10⁵ cells/well). The supernatant was removed by centrifugation 3 minutes at 4° C., 1300 rpm. Increasing concentrations of the antibody according to the invention were then added into the wells and incubated for 15 minutes at 4° C. Cells were washed twice with cold FACS buffer and re-incubated for further 15 minutes at 4° C. with the PE (R-phycoerythrin)-conjugated mouse anti-human IgG Fc secondary antibody (SouthernBiotech, pre-diluted 1:100 in FACS buffer). Cells were washed twice with cold FACS buffer and resuspended in 300 μl FACS buffer with 1:15000-diluted SytoxBlue (Life Technologies). Fluorescence, specifically mean fluorescence […] (MFI), was determined using a Cytoflex […] flow cytometer. Binding curves and […] and Emax values were obtained and calculated using GraphPad Prism7 software.

| Binder | fold higher binding affinity (KD) compared to K2AC22 [1] | fold higher binding affinity (KD) compared to K2AC22 [2] | EC50 [3] | Emax (MFI) [3] | fold higher binding affinity (lower KD) compared to K2AC22 [1] | fold higher binding affinity (lower KD) compared to K2AC22 [2] |
| --- | --- | --- | --- | --- | --- | --- |
| B1 | 46 fold | 28 fold | 16 nM | 360000 MFI | – | – |
| B2 | – | – | 18.7 nM | 280000 MFI | 25 fold | 14 fold |
| B3 | – | – | 44 nM | 230000 MFI | – | – |
